The record followed here is patent US20260158160A1 (MACFARLANE BURNET INSTITUTE FOR MEDICAL RESEARCH AND PUBLIC …, published 2026).

The assay deals with T1, SARS-CoV-2 spike protein expressed on Ramos-S cells (SARS-CoV-2, UniProt P0DTC2 14-1273).
T1 construct: whole, on cells; also called S protein; Ramos cells expressing transfected spike protein
Kind of assay: flow cytometry on Ramos-S cells.

B1: CC40.8-H429F (antibody)
heavy: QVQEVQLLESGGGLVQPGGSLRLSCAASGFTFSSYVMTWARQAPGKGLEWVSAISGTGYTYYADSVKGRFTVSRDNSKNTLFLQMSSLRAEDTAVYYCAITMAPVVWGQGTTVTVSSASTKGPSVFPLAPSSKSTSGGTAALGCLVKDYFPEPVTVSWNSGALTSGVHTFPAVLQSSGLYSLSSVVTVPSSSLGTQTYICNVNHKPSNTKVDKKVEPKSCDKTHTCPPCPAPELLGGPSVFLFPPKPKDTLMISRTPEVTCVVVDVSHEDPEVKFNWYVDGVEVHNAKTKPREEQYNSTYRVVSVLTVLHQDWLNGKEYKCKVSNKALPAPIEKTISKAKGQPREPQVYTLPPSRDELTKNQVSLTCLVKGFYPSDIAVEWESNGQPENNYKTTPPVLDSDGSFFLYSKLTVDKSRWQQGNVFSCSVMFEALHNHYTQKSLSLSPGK
light: SYELTQPPSVSVSPGQTARITCSGDALPKRYAYWYQQKSGQAPILVIYEDKKRPSGIPERLSGSKSGTVATLTISGAQVEDEADYYCYSTDSSGNHAVFGGGTQLTVLGQPKAAPSVFIFPPSDEQLKSGTASVVCLLNNFYPREAKVQWKVDNALQSGNSQESVTEQDSKDSTYSLSSTLTLSKADYEKHKVYACEVTHQGLSSPVTKSFNRGEC
notes: also called CC40.8-HF
In the case of B1, the binding result is listed as “binds”.
